Some targets named below: MHV HR2 peptide (MHV); 229E FP peptide (229E); HKU1 FP peptide (HKU1); SADS HR2 peptide (SADS).
What all share (test): peptide ELISA
The target of experiment [1] is HKU5 HR2 peptide (HKU5), A3EXD0.
Experiment [2] deals with HKU9 HR2 peptide (HKU9), A3EXG6.
The target in experiment [3] is SARS-CoV-2 HR2 peptide (SARS-CoV-2), P0DTC2.
The target in experiment [4] is Hu_PDCoV FP peptide (Hu_PDCoV).
The target in experiment [5] is MERS FP peptide (MERS), K9N5Q8.
Experiment [6] has as its target NL63 FP peptide (NL63), Q6Q1S2.
The target of experiment [7] is OC43 FP peptide (OC43), P36334.
The target in experiment [8] is SARS-CoV FP peptide (SARS-CoV), P59594.
Experiment [9] addresses SARS-CoV-2 FP peptide (SARS-CoV-2).
For experiment [10], the target named is FCoV-KU2 FP peptide (FCoV-KU2).
For experiment [11], the target named is CCoV_HuPn FP peptide (CCoV_HuPn).
The target of experiment [12] is HKU4 HR2 peptide (HKU4), A3EX94.

B1: CV3-25 (antibody)
chain 1: QVQLVESGAEVKKPGESLKISCKGSGYTFTRYWIGWVRQMPGKGLEWMGIIYPGDSDTRYSPSFQGHVTISADKSISTAYLQWNSLKASDTAMYYCARLPQYCSNGVCQRWFDPWGQGTLVTVSS
chain 2: EIVLTQSPSSVSASVGDRVTITCRASQGISSWLAWYQQKPGKAPKLLIYAASSLQSGVPSRFSGSGSGTDFTLTISSLQPEDFATYYCQQGNSFPYTFGQGTNLEIK
Regarding B1, the EC50 in experiment [1] was found to be 1.57 µg/mL; in experiment [2] it was 0.358 µg/mL; in the experiment with MHV HR2 peptide (MHV), 0.0239 µg/mL; in experiment [3] it was 0.00968 µg/mL.

B2: fp.002 (antibody, V domains shown)
VH: VQLVESGGGVVQPGTSLRLSCAGSGFNFDNYAIHWVRQAPGQGLEWVAIISYEARNKKYAGSVTGRFSISRDNSKSMVYLQMDSLRGEDTAVYYCARDLFLSDYDRSGYDPTRGGFDLWGQGTLVTVSS
VL: EIVMTQSPATLSVSPGERATLSCRASQSVSSSLAWYQHKLGQAPRLLIYGASTRATGIPGRFSGSGSGTEFTLTISSLQSEDVAIYYCQQYGDWPLVTFGGGTKVEIK
In the case of B2, the EC50 in the experiment with 229E FP peptide (229E) was 0.0176 µg/mL; with HKU1 FP peptide (HKU1), 0.0256 µg/mL; in experiment [4], 0.0215 µg/mL; in experiment [5], 0.0358 µg/mL; in experiment [6], 0.0245 µg/mL; in [7], 0.0211 µg/mL. Moreover, the EC50 in [8] stood at 0.0285 µg/mL; in experiment [9], 0.032 µg/mL.

B3: fp.003 (antibody, V domains shown)
VH: VQLVESGGGVVQPGTSLRLSCTASGFSFSNYAMHWVRQAPGKGLEWVAIISFDTRNKEFADSVKGRFSISRDNSKNSLNLQMNSLRPEDTGVYYCARDLFLSDYDSRGYEPSRGGFDYWGQGTLVTVSS
VL: EIVMTQSPATLSVSPGERATLSCRASQSVSSSLAWYQQKLGQPPRLLIYGASTRATGIPARFSGSGSGTEFTLTISSLKSEDSAVYYCQQYNDWPLLSFGGGTKVEIK
With B3, the EC50 in the experiment with 229E FP peptide (229E) came out at 0.0201 µg/mL; in [10], 0.0295 µg/mL; with HKU1 FP peptide (HKU1), 0.0238 µg/mL; in experiment [5], 0.0349 µg/mL; in experiment [6], 0.0249 µg/mL; in [7] it was 0.0149 µg/mL. Further, the EC50 in [8] is 0.0285 µg/mL; in experiment [9], 0.0369 µg/mL.

B4: fp.005 (antibody, V domains shown)
VH: VQLVESGGGVVQPGNSLRLSCAASGFRFNNYAMHWVRQAPGKGLEWVAIISYEARNEKYADSVKGRFSISRDNAKNTLYLQMNSLRADDTGVYYCARDLFLSDYDTSGYDRTRGGFDYWGQGALVTVSS
VL: EIVMTQSPATLSVSPGERATLSCRASQSVSNGLAWYQHRFGQPPRLLIYGASTRATGIPTRFSGSGSGTEFTLTISSLQSEDFAVYYCQQYDDWPLITFGGGTKVEIK
B4: the EC50 with 229E FP peptide (229E) is 0.0175 µg/mL; in experiment [10] it was 0.028 µg/mL; in experiment [5], 0.04 µg/mL; in [6], 0.0231 µg/mL; in experiment [7], 0.0244 µg/mL; in [9], 0.0295 µg/mL.

B5: fp.006 (antibody, V domains shown)
VH: VQLVESGGGVVQPGGSLRLSCAASGFNFNNYALHWVRQAPGKGLEWVAIISYEARNKKYGVSVMGRFSISRDNSKSIMYLEMNSLRVEDTGVYYCARDLFLSDYDRSGYDPTRGGFDHWGQGTLVTVSS
VL: EIVMTQSPATLSVSPGERATLSCRASQSVSSSLAWYQHRFGQAPRLLISGASTRATGIPGRFSGSGSGTEFTLTISSLQSEDVAVYYCQQYGDWPLVTFGGGTKVEIK
Consider B5, for which the EC50 is 0.0121 µg/mL with 229E FP peptide (229E); 0.0149 µg/mL in experiment [10]; 0.0168 µg/mL with HKU1 FP peptide (HKU1); 0.0228 µg/mL in [5]; 0.0144 µg/mL in experiment [6]; 0.0134 µg/mL in experiment [7]. Besides, the EC50 in experiment [8] turned out to be 0.0157 µg/mL; in experiment [9] it was 0.0331 µg/mL.

B6: fp.009 (antibody, V domains shown)
VH: VQLVESGGGVVQPGTSLTLSCEASGFTFSNYAMHWVRQAPGKGLEWVAIISFDTRNKKFAGSVQGRFSISRDNAKNSIYLQMNNLRPEDTGIYYCARDVFLSDYDSRGFDRTRGGFDYWGQGTLVTVSS
VL: EIVMTQSPATLSVSPGEKATLSCRASESVGSSLAWYQQKLGQAPRLLIYGASTRATGIPARFSGSGSGAEFTLTISSLQSEDFAIYYCQQYGDWPLLTFGGGTKVEIK
Turning to B6, the EC50 in the experiment with 229E FP peptide (229E) worked out at 0.0236 µg/mL; in [11], 0.021 µg/mL; with HKU1 FP peptide (HKU1), 0.0241 µg/mL; in experiment [4] it was 0.0276 µg/mL; in experiment [5] it was 0.0346 µg/mL; in [6], 0.0214 µg/mL. Besides, the figures for the half-maximal effective concentration (EC50) in experiment [7], in experiment [8] and in experiment [9] were 0.026 µg/mL, 0.0251 µg/mL and 0.038 µg/mL, respectively.

B7: hr2.015 (antibody, V domains shown)
VH: QVQLVQSGAEVKKPGASVKVSCKASGYTFSSYYVNWVRQAPGQGLEWLGIINRSGSSTIYAQKFQGRVTMTRDTSTSTVYLELSSLRSEDTAVYYCARDQDHALHWGQGTLVTVSS
VL: QSVLTQPPSVSAAPGQKVTISCSGSSSNIGSNYVSWYQQLPGTAPKLLIYDNSERPSGIPDRFSGSRSGTSATLGITGLQTGDEADYYCGTWDTSLSAWVFGGGTKLTVL
On to B7, for which the EC50 turned out to be 0.05 µg/mL in [12]; 0.0467 µg/mL in [1]; 0.0543 µg/mL with MHV HR2 peptide (MHV); 0.0731 µg/mL in the experiment with SADS HR2 peptide (SADS); 0.047 µg/mL in experiment [3].

B8: fp.004 (antibody, V domains shown)
VH: VQLVESGGGVVQPGTSLRLSCVASGFTFSNYAMHWVRQAPGKGLEWVAIISFDTRNTASAASVKGRFNISRDNSKNSLYLQMNSLRPEDTGVYYCARDLFLSDYDSRGYDPITGGFDCWGQGTLVTVSS
VL: EIVMTQSPAALSVSPGEGATLSCRASQSVGSRLAWYQQKLGRPPRLLIYGASTRATGIPARFSGSGSGTEFTLTISSLQSEDFAVYYCQQYNDWPLLTFGGGTKVKIK
Turning to B8, the EC50 with 229E FP peptide (229E) came out at 0.0202 µg/mL; in the experiment with HKU1 FP peptide (HKU1), 0.0272 µg/mL; in experiment [4] it was 0.0343 µg/mL; in [5], 0.0386 µg/mL; in experiment [6], 0.0267 µg/mL; in experiment [7], 0.0222 µg/mL. Besides, the 50% effective concentration (EC50) came to 0.03 µg/mL in [8] and 0.0352 µg/mL in experiment [9].

B9: hr2.094 (antibody, V domains shown)
VH: EVQLVESGGGLVQPGGSLRLSCAASGFTFSTFWMTWVRQAPGKGLEWVANIKSDGSEKYYVDSVKGRFTISRDNAKNSLYLQMNSLRAEDTAVYYCATWFGLHWGQGTLVTVSS
VL: DIVMTQSPDSLAVSLGERASINCKSSQTVLYSSNNKNYLAWYQQKPGQPPKLLIHWASTRDSGVPDRFSGSGSGTDFTLTISSLQAEDVAVYYCQQYHRIPWTFGRGTKVEIK
As for B9, the EC50 in [12] was 0.0157 µg/mL; in experiment [1] it was 0.0192 µg/mL; in [2] it was 0.227 µg/mL; with MHV HR2 peptide (MHV), 0.0189 µg/mL; in [3], 0.0835 µg/mL.

By EC50 is commonly meant the concentration needed to bring the measured effect to its halfway point.

The record behind these values is patent US20250382354A1.
